# Assay results reported in patent publication US20230312722A1 (NONA BIOSCIENCES SUZHOU, published 2023).
# Like-named read-outs stand apart in the source and are kept apart here.
# Key:
# [1] = target: T1, cynomolgus monkey B7H4 on the cell surface (cynomolgus monkey, UniProt A0A2K5U6P5 25-282); assay: FACS, CHOK1/cyno B7H4 cells
# T1 construct: whole, on cells; also called CHOK1/cyno B7H4
# T1 sequence: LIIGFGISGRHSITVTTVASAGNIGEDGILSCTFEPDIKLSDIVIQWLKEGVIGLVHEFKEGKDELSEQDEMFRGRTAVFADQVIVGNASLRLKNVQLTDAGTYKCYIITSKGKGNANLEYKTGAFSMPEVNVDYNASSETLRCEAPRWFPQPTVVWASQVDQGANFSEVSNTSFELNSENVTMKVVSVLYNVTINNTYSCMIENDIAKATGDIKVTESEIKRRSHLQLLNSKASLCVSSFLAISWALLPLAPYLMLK
# Experimental: (§1) This example is intended to investigate the in vitro binding activity of anti-human B7H4 H2L2 monoclonal antibody to human/cynomolgus monkey/mouse B7H4. Antibody binding experiments at the cellular level were performed using CHOK1 cell line overexpressing human B7H4 (CHOK1/hu B7H4, Harbour BioMed), CHOK1 cell line overexpressing cynomolgus monkey B7H4 (CHOK1/cyno B7H4, Harbour BioMed), CHOK1 cell line overexpressing mouse B7H4 (CHOK1/m B7H4, Harbour BioMed) and SK-BR-3 cell line (ATCC® HTB-30) highly expressing human B7H4. Briefly, CHOK1/hu B7H4 cells, CHOK1/cyno B7H4 cells, CHOK1/m B7H4 cells or SK-BR-3 cells were digested and resuspended with PBS containing 2% BSA. The cell density was adjusted to 1×10⁶ cells/mL. The cells were seeded in a 96-well V-bottom plate (Corning, #3894) at 100 μL/well, followed by the addition of test antibodies diluted in a 3-fold concentration gradient of 2 times the final concentration, each at 100 μL/well. The cells were incubated at 4° C. for 2 h away from light. Thereafter, the cells in each well were rinsed twice with 100 μL of pre-cooled PBS containing 2% BSA, and centrifuged at 500 g at 4° C. for 5 min, and then the supernatant was discarded. […] Finally, the cells in each well were resuspended with 200 μL of pre-cooled PBS containing 2% BSA, and the fluorescence signal values were read using an ACEA Novocyte3000 flow cytometer.
# [2] = target: T2, B7-H4 (Acro Biosystems, #B74-H82E2) (UniProt Q7Z7D3 29-258); assay: BLI epitope competition; 1st Ab = row; competitor (2nd Ab) PR002421; inhibition of the 2nd Ab signal
# T2 construct: Bought protein; also called B7-H4 captured on SA sensor
# T2 sequence (looked up): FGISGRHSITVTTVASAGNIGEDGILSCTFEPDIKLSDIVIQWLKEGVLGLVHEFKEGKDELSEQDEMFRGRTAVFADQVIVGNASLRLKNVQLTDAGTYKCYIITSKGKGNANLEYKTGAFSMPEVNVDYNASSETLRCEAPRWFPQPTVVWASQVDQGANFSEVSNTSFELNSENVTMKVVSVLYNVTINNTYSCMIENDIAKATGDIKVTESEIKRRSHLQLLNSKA
# Experimental: (§2) Step one, acquisition of 100% signal of antibodies: B7-H4 (Acro Biosystems, #B74-H82E2-200 μg) was captured at a capture height of 0.25 nm using an SA sensor (Fortebio, #18-5019). The sensor was equilibrated in a buffer for 120 s and then immersed in each antibody diluted to 100 nM for 240 s, and the final signal of the antibody binding to B7-H4 was recorded as the 100% signal of the antibody. Step two, epitope competition experiment: B7-H4 was captured using an SA sensor at a capture height of 0.25 nm. The sensor was immersed in a primary antibody (at a concentration of 100 nM) for 240 s, and then the SA sensor was immersed in a mixture of the primary and secondary antibodies (both at a final concentration of 100 nM) for 240 s, and the difference in signals after immersion of the sensor in the antibody mixture was recorded as the signal of the antibody as the secondary antibody. The inhibition rate was calculated according to the following formula: […]
# [3] = target: T2, B7-H4 (Acro Biosystems, #B74-H82E2); assay: BLI epitope competition; 1st Ab = row; competitor (2nd Ab) Control antibody 2; inhibition of the 2nd Ab signal
# Experimental: as §2
# [4] = target: T2, B7-H4 (Acro Biosystems, #B74-H82E2); assay: BLI epitope competition; 1st Ab = row; competitor (2nd Ab) PR002418; inhibition of the 2nd Ab signal
# Experimental: as §2
# [5] = target: T3, human B7H4 on the cell surface (human, UniProt Q7Z7D3 25-282); assay: FACS, SK-BR-3 cells
# T3 construct: whole, on cells; also called CHOK1/hu B7H4; B7H4 on SK-BR-3
# T3 sequence (looked up): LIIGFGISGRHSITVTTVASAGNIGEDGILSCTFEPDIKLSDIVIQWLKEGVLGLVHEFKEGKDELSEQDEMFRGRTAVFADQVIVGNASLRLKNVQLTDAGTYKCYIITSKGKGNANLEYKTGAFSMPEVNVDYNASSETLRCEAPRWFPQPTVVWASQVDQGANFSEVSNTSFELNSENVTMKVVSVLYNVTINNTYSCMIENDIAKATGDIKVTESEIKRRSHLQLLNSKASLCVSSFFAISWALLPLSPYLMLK
# Experimental: as §1
# [6] = target: T3, human B7H4 on the cell surface; assay: FACS, SK-BR-3 cells; remark: listed apart in the source
# Experimental: This example is intended to investigate the in vitro binding activity of anti-human B7H4 H2L2 monoclonal antibody to human/cynomolgus monkey/mouse B7H4. Antibody binding experiments at the cellular level were performed using CHOK1 cell line overexpressing human B7H4 (CHOK1/hu B7H4, Harbour BioMed), CHOK1 cell line overexpressing cynomolgus monkey B7H4 (CHOK1/cyno B7H4, Harbour BioMed), CHOK1 cell line overexpressing mouse B7H4 (CHOK1/m B7H4, Harbour BioMed) and SK-BR-3 cell line (ATCC® HTB-30) highly expressing human B7H4. Briefly, CHOK1/hu B7H4 cells, CHOK1/cyno B7H4 cells, CHOK1/m B7H4 cells or SK-BR-3 cells were digested and resuspended with PBS containing 2% BSA. The cell density was adjusted to 1×10⁶ cells/mL. The cells were seeded in a 96-well V-bottom plate (Corning, #3894) at 100 μL/well, followed by the addition of test antibodies diluted in a 3-fold concentration gradient of 2 times the final concentration, each at 100 μL/well. The cells were incubated at 4° C. for 2 h away from light. Thereafter, the cells in each well were rinsed twice with 100 μL of pre-cooled PBS containing 2% BSA, and centrifuged at 500 g at 4° C. for 5 min, and then the supernatant was discarded. Then 100 μL of a fluorescent secondary antibody (Alexa Fluor 488-conjugated AffiniPure Goat Anti-Human IgG, Fcγ Fragment Specific, Jackson, #109-545-098, 1:500 diluted) was added to each well. The plate was incubated away from light at 4° C. for 1 h. The cells in each well were washed twice with 100 μL of pre-cooled PBS containing 2% BSA, and centrifuged at 500 g at 4° C. for 5 minutes, and then the supernatant was discarded. Finally, the cells in each well were resuspended with 200 μL of pre-cooled PBS containing 2% BSA, and the fluorescence signal values were read using an ACEA Novocyte3000 flow cytometer.
# [7] = target: T3, human B7H4 on the cell surface; assay: FACS on MDA-MB-468 cells; in the drawn table the number stands under the head 'EC50 (nM)' (the two heads are interchanged)
binder,measurement,setting,value
"Control antibody 1 (PR000157) (antibody, V domains shown, Anti-B7H4 IgG1 control antibody from WO2016040724A1; also called 1D11.v1.9varC2) VH: EVQLVQSGAEVKKPGASVKVSCKASGYTFTSYWIGWVRQAPGQGLEWIGDIYPGGGYTNYNEKFKGRVTITRDTSTSTAYLELSSLRSEDTAVYYCARLAGSSYRGAMDSWGQGTLVTVSS VL: DIQMTQSPSSLSASVGDRVTITCKASQGFNKYVAWYQQKPGKAPKLLIYYTSTLQPGVPSRFSGSGSGRDYTLTISSLQPEDFATYYCLQYGDLLYAFGQGTKVEIKR",EC50,[1],2.1 nM
same,Maximum MFI,[1],1.99e+06 MFI
same,Competitive inhibition rate (%),[2],1.97%
same,Competitive inhibition rate (%),[3],94.6%
same,Competitive inhibition rate (%),[4],4.55%
same,EC50,[5],1.2 nM
same,Maximum MFI,[5],266000 MFI
same,EC50,[6],1.18 nM
same,Maximum MFI,[6],316000 MFI
same,Maximum MFI,[7],254000
